{
  "source": "patent US20240041976A1",
  "about": "“COMPOSITION AND USE” (priority 2020, published 2024)",
  "key": {"S. haemoliticus NVH 409": {"tested_on": "S. haemoliticus NVH 409", "assay": "organism not typed", "format": "cell-based", "method": "(§1) Antimicrobial activity was measured using the AAMP assay (Wiegand et al., 2008, Nat. Protoc., Vol. 3(2), p 163-175).\n(§2) Synergy testing was done with a microtiter plate checkerboard assay as previously described (Orhan et al., 2005, J. Clin. Microbiol., Vol. 43(1), p 140-143). Briefly, equal amounts of antimicrobial A were applied on microtiter plate 1 in wells A1-H1 and then diluted two-fold to wells 2-12. Similarly, equal amounts of antimicrobial B were applied on microtiter plate 2 in wells A1-A12 and diluted two-fold in wells B-H. Volumes of 50 μl of antimicrobial A from each well of microtiter plate 1 were transferred into microtiter plate 3, except for wells H1-H12. Similarly, the same volumes were transferred from microtiter plate 2 into plate 3, except for wells A1-A8. A 100 μl volume of 25 times diluted ON bacterial culture of MRSA was transferred into each well of plate 3. A 50 μl volume of pure broth was added into each well in lines H1-H12 and A1-A8 which were used to estimate MIC values of pure substances (blank).\n(§3) Antimicrobial activity was measured using the AAMP assay as described in Example 2.\n(§4) Synergy testing was performed as in Example 2."}, "E. faecalis 3351": {"tested_on": "E. faecalis 3351", "assay": "microbe, parasite or virus in culture", "format": "cell-based, Enterococcus faecalis", "method": "as §1, §2, §3, §4"}, "E.faecalis 3689": {"tested_on": "E.faecalis 3689", "assay": "microbe, parasite or virus in culture", "format": "cell-based, Enterococcus faecalis", "method": "as §1, §2, §3, §4"}, "[1]": {"tested_on": "three MRSA strains (ATCC33591-lux, USA-300 and MRSA 43484)", "assay": "AAMP assay and checkerboard synergy, summary", "format": "cell-based, Staphylococcus aureus", "method": "as §2, with “Briefly,” for “Synergy testing was done with a microtiter plate checkerboard assay as previously described (Orhan et al., 2005, J. Clin. Microbiol., Vol. 43(1), p 140-143). Briefly,”, “A 100 μl volume of 25 times diluted ON bacterial culture of MRSA was transferred into each well of plate 3.” left out\n(§5) Three-component synergy was assessed by mixing the three components (100 μg of PenG, 50 μg of GarKS and 2.5 μg of MP1) into one well of a microtiter plate, compared with activity of individual antimicrobials on the same plate."}, "MRSA 43484": {"tested_on": "MRSA 43484", "assay": "AAMP assay and checkerboard synergy", "format": "cell-based, Staphylococcus aureus", "conditions": "MRSA 43484", "method": "as §1, §2\nas §5, with “plate. The fractional inhibition concentration (FIC) which was used to define synergy was calculated as set forth in Example 1.” for “plate.”"}, "MRSA ATCC 33591-lux": {"tested_on": "MRSA ATCC 33591-lux", "assay": "AAMP assay and checkerboard synergy", "format": "cell-based, Staphylococcus aureus", "conditions": "MRSA ATCC 33591-lux", "method": "as §1, §2\nas §5, with “plate. The fractional inhibition concentration (FIC) which was used to define synergy was calculated as set forth in Example 1.” for “plate.”"}, "MRSA USA-300": {"tested_on": "MRSA USA-300", "assay": "AAMP assay and checkerboard synergy", "format": "cell-based, Staphylococcus aureus", "conditions": "MRSA USA-300", "method": "as §1, §2\nas §5, with “plate. The fractional inhibition concentration (FIC) which was used to define synergy was calculated as set forth in Example 1.” for “plate.”"}, "S. aureus ATTC 10832": {"tested_on": "S. aureus ATTC 10832", "assay": "Planktonic cell growth inhibition assay (MIC50, liquid culture)", "format": "cell-based, Staphylococcus aureus", "method": "(§6) Growth inhibition assays were performed in 96-well microtiter plates as described previously (Chi and Holo, 2018, supra). Briefly, 135 μl of TSB were dispensed in each well of a microtiter plate (according to the number of bacterial strains tested) except in the wells of the first row. The antimicrobials were diluted in TSB to working concentrations in a final volume of 285 μl and dispensed in the wells of the first row. The working concentrations were 100 μg/μl for garvicin KS, 10 μg/μl for micrococcin P1 and 1 mg/ml for penicillin G. From the first row, 150 μl of the antimicrobials were then serially diluted (two-fold dilutions) in a sequential fashion until the last row of the plate. Finally, 15 μl of a fresh O/N culture of each strain were added in the appropriate wells to reach a final volume of 150 μl in each well. The plates were then incubated at 37° C. for 24 h. The growth inhibition was expressed as minimum inhibitory concentration (MIC50), which refers to the minimum concentration of the antimicrobial needed to reduce at least 50% of the microbial growth compared to the untreated control. The MIC50 was assessed by optical density readings at 600 nm (O.D.600).\n(§7) Synergistic interactions between antimicrobials were determined using the fractional inhibition concentration (FIC). The FIC values were calculated as follows: the sum of the FIC =FICa+FICb+FICc, where the FICa means MIC of A in combination/MIC of A alone, FICb means MIC of B in combination/MIC of B, and FICc means MIC of C in combination/MIC of C alone. Effects were considered as synergistic if FIC was ≤0.5 for two components mixture and ≤0.75 for three components mixture."}, "S.a. 3255": {"tested_on": "S.a. 3255", "assay": "Planktonic cell growth inhibition assay (MIC50, liquid culture)", "format": "cell-based, Staphylococcus aureus", "method": "as §6, §7"}, "S. aureus biofilms": {"tested_on": "S. aureus biofilms", "assay": "BOAT followed by CFU counting", "format": "cell-based, Staphylococcus aureus", "conditions": "5 mg/ml garvicin KS, 0.1 mg/ml micrococcin P1, 10 mg/ml penicillin G", "method": "The procedure for the BOAT assay was repeated as described above except that instead of adding the TTC solution, the antimicrobial-challenged cells were resuspended in TSB and then serially diluted in TSB buffer. Serial dilutions of the bacterial cells were than plated on BHI agar plates and incubated at 37° C. for 24 h. The results were then assessed by direct counting of the developed colonies and the colony forming unit (CFU) was determined."}, "[2]": {"conditions": "triple combination PenG, GarKS and MP1"}, "[3]": {"conditions": "garvicin KS + micrococcin P1 + penicillin G"}},
  "note": "No end group written: not given here.",
  "data": [
    {"molecule": "MKFKFNPTGTIVKKLTQYEINWYKQQYGRYPWERPVA [Hybrid K1-EJ]", "values": [
      {"measurement": "MIC, single antimicrobial", "setting": "S. haemoliticus NVH 409", "result": ">25", "unit": "µg/mL"},
      {"measurement": "MIC of MP1 in comb. with the labelled antimicrobial", "setting": "S. haemoliticus NVH 409; S. haemoliticus NVH 409", "result": 0.08, "unit": "µg/mL"},
      {"measurement": "MIC of the labelled antimicrobial in comb. with MP1", "setting": "S. haemoliticus NVH 409; S. haemoliticus NVH 409", "result": 3, "unit": "µg/mL"},
      {"measurement": "MIC, single antimicrobial", "setting": "E. faecalis 3351; 3351", "result": ">25", "unit": "µg/mL"},
      {"measurement": "MIC of MP1 in comb. with the labelled antimicrobial", "setting": "E. faecalis 3351; E. faecalis 3351", "result": 5.6, "unit": "µg/mL"},
      {"measurement": "MIC of the labelled antimicrobial in comb. with MP1", "setting": "E. faecalis 3351; E. faecalis 3351", "result": 3, "unit": "µg/mL"},
      {"measurement": "MIC, single antimicrobial", "setting": "E.faecalis 3689; 3689", "result": ">25", "unit": "µg/mL"},
      {"measurement": "MIC of MP1 in comb. with the labelled antimicrobial", "setting": "E.faecalis 3689; E.faecalis 3689", "result": 3, "unit": "µg/mL"},
      {"measurement": "MIC of the labelled antimicrobial in comb. with MP1", "setting": "E.faecalis 3689; E.faecalis 3689", "result": 1.5, "unit": "µg/mL"}
    ]},
    {"molecule": "Garvicin KS: three-peptide leaderless bacteriocin (GarA, GarB, GarC; SEQ ID NO:6-8), peptides synthesized (peptide, listed as Lactococcus garvieae) chain 1: MGAIIKAGAKIVGKGVLGGGASWLGWNVGEKIWK chain 2: MGAIIKAGAKIIGKGLLGGAAGGATYGGLKKIFG chain 3: MGAIIKAGAKIVGKGALTGGGVWLAEKLFGGK", "values": [
      {"measurement": "reduction of MIC when combined", "setting": "[1]; GarKS with Amp or PenG", "result": 4, "unit": "times"},
      {"measurement": "MIC of the component when GarKS and MP1 are combined", "setting": "[1]; checkerboard assay", "result": 8, "unit": "µg/mL"},
      {"measurement": "MIC of the component when combined", "setting": "[1]; [2]", "result": 4, "unit": "µg/mL"},
      {"measurement": "reduction of MIC when combined", "setting": "[1]; [2]", "result": "about 8 times"},
      {"measurement": "MIC, single antimicrobial", "setting": "MRSA 43484", "result": 32, "unit": "µg/mL"},
      {"measurement": "MIC, single antimicrobial", "setting": "MRSA ATCC 33591-lux", "result": 32, "unit": "µg/mL"},
      {"measurement": "MIC, single antimicrobial", "setting": "MRSA USA-300", "result": 32, "unit": "µg/mL"},
      {"measurement": "MIC50 of the component in combination", "setting": "S. aureus ATTC 10832; garvicin KS + micrococcin P1", "result": 6.3, "unit": "µg/mL"},
      {"measurement": "MIC50 of the component in combination", "setting": "S. aureus ATTC 10832; [3]", "result": "<0.78", "unit": "µg/mL"},
      {"measurement": "MIC50 of the component in combination", "setting": "S. aureus ATTC 10832; garvicin KS + penicillin G", "result": "<0.78", "unit": "µg/mL"},
      {"measurement": "MIC50", "setting": "S. aureus ATTC 10832; individual component", "result": 25, "unit": "µg/mL"},
      {"measurement": "MIC50 of the component in combination", "setting": "S.a. 3255; garvicin KS + micrococcin P1", "result": 0.013, "unit": "mg/mL"},
      {"measurement": "MIC50 of the component in combination", "setting": "S.a. 3255; [3]", "result": "<7.8 × 10^−4. mg/ml"},
      {"measurement": "MIC50 of the component in combination", "setting": "S.a. 3255; garvicin KS + penicillin G", "result": "<0.00078", "unit": "mg/mL"},
      {"measurement": "MIC50", "setting": "S.a. 3255; individual component", "result": 25, "unit": "µg/mL"},
      {"measurement": "cell viability, LogCFU after BOAT", "setting": "S. aureus biofilms", "result": "most dramatic reduction in LogCFU levels for all the strains"}
    ]}
  ]
}
